Laboratory results reported in PMC8884472 (Molecular cell, 2022).

B1: recombinant KLHL12^6xHis (natural protein, UniProt Q53G59 1-568, looked up)
chain: MGGIMAPKDIMTNTHAKSILNSMNSLRKSNTLCDVTLRVEQKDFPAHRIVLAACSDYFCAMFTSELSEKGKPYVDIQGLTASTMEILLDFVYTETVHVTVENVQELLPAACLLQLKGVKQACCEFLESQLDPSNCLGIRDFAETHNCVDLMQAAEVFSQKHFPEVVQHEEFILLSQGEVEKLIKCDEIQVDSEEPVFEAVINWVKHAKKEREESLPNLLQYVRMPLLTPRYITDVIDAEPFIRCSLQCRDLVDEAKKFHLRPELRSQMQGPRTRARLGANEVLLVVGGFGSQQSPIDVVEKYDPKTQEWSFLPSITRKRRYVASVSLHDRIYVIGGYDGRSRLSSVECLDYTADEDGVWYSVAPMNVRRGLAGATTLGDMIYVSGGFDGSRRHTSMERYDPNIDQWSMLGDMQTAREGAGLVVASGVIYCLGGYDGLNILNSVEKYDPHTGHWTNVTPMATKRSGAGVALLNDHIYVVGGFDGTAHLSSVEAYNIRTDSWTTVTSMTTPRCYVGATVLRGRLYAIAGYDGNSLLSSIECYDPIIDSWEVVTSMGTQRCDAGVCVLREK
B2: recombinant PEF1 (natural protein, UniProt Q9UBV8 1-284, looked up)
chain: MASYPYRQGCPGAAGQAPGAPPGSYYPGPPNSGGQYGSGLPPGGGYGGPAPGGPYGPPAGGGPYGHPNPGMFPSGTPGGPYGGAAPGGPYGQPPPSSYGAQQPGLYGQGGAPPNVDPEAYSWFQSVDSDHSGYISMKELKQALVNCNWSSFNDETCLMMINMFDKTKSGRIDVYGFSALWKFIQQWKNLFQQYDRDRSGSISYTELQQALSQMGYNLSPQFTQLLVSRYCPRSANPAMQLDRFIQVCTQLQVLTEAFREKDTAVQGNIRLSFEDFVTMTASRML

Key:
[1] = molecular target: recombinant CUL3/RBX1 (UniProt Q13618 1-768; P62877 1-108); assay: pull-down
[2] = molecular target: B1; assay: pull-down

Sequence of recombinant CUL3/RBX1 (Q13618 whole entry, chain 1 of 2): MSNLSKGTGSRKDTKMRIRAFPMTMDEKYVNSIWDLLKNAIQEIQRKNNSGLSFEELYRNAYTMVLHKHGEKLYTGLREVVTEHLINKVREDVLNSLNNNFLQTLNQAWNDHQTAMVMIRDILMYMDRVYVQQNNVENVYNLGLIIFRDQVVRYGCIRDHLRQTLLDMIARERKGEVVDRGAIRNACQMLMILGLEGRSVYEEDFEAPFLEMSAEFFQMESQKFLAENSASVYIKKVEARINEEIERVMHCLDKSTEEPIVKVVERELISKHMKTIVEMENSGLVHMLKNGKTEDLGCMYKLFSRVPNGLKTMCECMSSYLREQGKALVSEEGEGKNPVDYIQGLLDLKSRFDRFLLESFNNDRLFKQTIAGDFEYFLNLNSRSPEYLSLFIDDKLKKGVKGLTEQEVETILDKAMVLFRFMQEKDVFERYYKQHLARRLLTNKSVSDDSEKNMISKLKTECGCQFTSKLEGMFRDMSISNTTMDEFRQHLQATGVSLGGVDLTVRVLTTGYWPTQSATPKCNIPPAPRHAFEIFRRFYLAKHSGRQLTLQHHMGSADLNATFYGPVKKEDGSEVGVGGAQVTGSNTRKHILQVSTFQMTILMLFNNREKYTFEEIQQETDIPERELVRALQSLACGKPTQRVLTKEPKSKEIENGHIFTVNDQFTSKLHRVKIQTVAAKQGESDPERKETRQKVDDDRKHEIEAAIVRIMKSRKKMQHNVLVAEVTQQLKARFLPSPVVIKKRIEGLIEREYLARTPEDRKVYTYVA
Sequence of recombinant CUL3/RBX1 (P62877 whole entry, chain 2 of 2): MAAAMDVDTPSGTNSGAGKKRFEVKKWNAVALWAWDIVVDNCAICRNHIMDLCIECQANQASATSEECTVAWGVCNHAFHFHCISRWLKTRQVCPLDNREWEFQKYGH

Row | binding result [1] | binding result [2] | Binder
1 | binds | – | B1
2 | – | binds | B2
